# Test results as given in patent US10413564B2, “Compositions and methods for combating drug-resistant cancers” (NATIONAL YANG-MING UNIVERSITY, priority 2016, dated 2019).
# “Also recorded” adds a separate entry of the source. Like-named read-outs stand apart in the source and are kept apart here.
# Experiments:
# EGFR-ECD = EGFR-ECD (Homo sapiens, UniProt P00533); test: Peptide in vitro binding assay with EGFR-ECD; conditions: in vitro binding assay of peptides P1-P10
# Description: The purified full-length EGFR and EGFR-ECD was incubated with peptides containing sequences of different β-sheets of LTβ.
# P1-P10 (SEQ ID NOs: 2-10) were tested for in vitro binding assay.
# EGFR-ICD = EGFR-ICD (Homo sapiens, UniProt P00533); test: In vitro binding assay, EGFR-ICD and LTβ interaction; conditions: LTβ β-sheet peptides
# Source text: (§1) Since LTβ also induces EGFR-ICD phosphorylation in vitro, the applicant also investigated whether interception of EGFR-ICD and LTβ interaction could attenuate EGFR phosphorylation.
# EGF-EGFR binding = biological target: T1, EGF-EGFR binding (Homo sapiens, UniProt P00533); test: EGF binding (flow cytometry); type: cell-based; conditions: OECM1-Ctx^R
# T1 construct: examined the effect of treating the peptides containing different β-sheets of LTβ on OECM1-Ctx^R; endogenous in cells; host or cells: OECM1-CtxR (cetuximab-resistant subline of OECM1); parental OECM1 for comparison
# Description: To analyze EGF binding, the cells were resuspended, incubated in a PE-conjugated anti-EGF antibody and evaluated using a Cytomics FC 500 instrument (Beckman-Coulter Inc., Fullerton, Calif.). The EGF-bound populations were defined compared with the IgG control group.
# OECM1-Ctx^R cells [1] = test: Clonogenecity assay, sensitization of OECM1-Ctx^R to cetuximab by peptides; type: cell-based, human; conditions: OECM1-Ctx^R / cetuximab-resistant cells
# Description: The colonies were stained with crystal violet and counted if the size was great than 0.5 mm.
# 5,000 cells/well were seeded into 24-well plates. After 10 days of culturing, cells were washed by cold PBS twice and fixed by 4% paraformaldehyde for 1 hour. Cells then were stained by 0.005% crystal violet at 4° C. overnight. Colonies with a diameter larger than 0.5 mm were counted.
# EGFR [2] = biological target: T2, EGFR (Homo sapiens, UniProt P00533); test: In vitro kinase assay of EGFR phosphorylation; type: biochemical; set-up: Since LTβ also induces EGFR-ICD phosphorylation in vitro
# Source text: as §1
# EGFR [3] = biological target: T2, EGFR; test: EGFR Y1068 phosphorylation in OECM1-Ctx^R treated with LTβ β-sheet peptides; type: cell-based; set-up: examined the effect of treating the peptides containing different β-sheets of LTβ on OECM1-Ctx^R; endogenous in cells; host or cells: OECM1-CtxR (cetuximab-resistant subline of OECM1); parental OECM1 for comparison
# EGFR [4] = biological target: T2, EGFR; test: EGFR dimerization in OECM1-Ctx^R; type: cell-based; set-up: examined the effect of treating the peptides containing different β-sheets of LTβ on OECM1-Ctx^R; endogenous in cells; host or cells: OECM1-CtxR (cetuximab-resistant subline of OECM1); parental OECM1 for comparison
# [5] = tested on: colorectal tumors harboring a KRAS mutation; conditions: patients, FDA approval background; cited from earlier work
# [6] = tested on: OECM1-Ctx^R or primary HNSCC cells; test: Sensitization to cetuximab treatment by pathway inhibitors
# Description: (§2) A total of 5×10^4 cells per well were seeded in a 96-well plate with triplicate and incubated for 24 h and then treated with different concentrations of indicated drugs. After 24 h treatment, the medium was removed. The MTT assay solution was added to each well, and the plate was incubated for 1 h at 37° C. After incubation, the solution was carefully discarded and dimethyl sulphoxide was added to dissolve newly formed mitochondrial MTT crystals. Finally, the plate was read using a microplate reader at 540 nm. Based on the data of cell viability assay, IC50-value calculation was performed by Sigmaplot 10.0 (Systat Software Inc., San Jose, Calif.).
# OECM1-Ctx^R cells [7] = test: Growth inhibition of the cetuximab-resistant subline OECM1-Ctx^R; type: cell-based, human
# Description: as §2
# FaDu-Ctx^R cells = test: Growth inhibition of the cetuximab-resistant subline FaDu-Ctx^R; type: cell-based, human
# Description: A cetuximab-resistant HNSCC subline (named FaDu-Ctx^R) was established by in vivo selection. 1×10^5 wild-type FaDu cells per mouse were inoculated into the subcutaneous area of Balb/c nude mice (n=4). Two mice were treated with PBS and two were treated with cetuxmab once a week. […] After 10 weeks, the xenograpfted tumor was harvested for primary culture. […] The resistance of FaDu-Cxt^R was confirmed in vivo and in vitro. Subsequently, these two sublines were inoculated into nude mice again and treated with cetuximab.
# After 24 h treatment, the medium was removed.
# NF-κB = NF-κB luciferase reporter assay; type: cell-based, human; conditions: cetuximab-resistant cells
# Source text: Activation of NF-κB in cetuximab-resistant cells was evident by an increased expression of nuclear p65 and p52 proteins and an enhanced NF-κB activity. Knockdown of LTB reduced nuclear p65 and p52, and suppression of LTB by either shRNA or a LTβ neutralizing antibody reduced NF-κB reporter activity.
# The reporter constructs (PGL4.2-LTB-WT/PGL4.2-LTB-MUT/pGL4.23 promoter) were co-transfected into HEK-293T, FaDu or OECM1/OECM1-Ctx^R cells with different expression/control vector(s) as indicated in each experiment. A plasmid expressing the bacterial β-galactosidase gene (pCMV-βgal) was co-transfected in each experiment as an internal control for transfection efficiency. Cells were harvested after 48 hours of transfection and luciferase activities were assayed. The relative promoter activities were expressed as the fold-change in luciferase activity after normalization to β-galactosidase activity.
compound,measurement,setting,value
ERVYVNISH (beta-sheet of LTbeta) [P9],interaction with EGFR-ECD,EGFR-ECD,interact
same,interaction in the in vitro binding assay (EGFR-ICD context),EGFR-ICD,interacted with LTβ
same,EGF-EGFR binding,EGF-EGFR binding,reduced
same,sensitization to cetuximab treatment by peptide,OECM1-Ctx^R cells [1]; listed as 9th β-sheet,capable for sensitizing; also recorded: sensitized
same,"EGFR phosphorylation, in vitro kinase assay",EGFR [2],suppresses EGFR phosphorylation most significantly
same,EGFR Y1068 phosphorylation,EGFR [3]; listed as 9th β-sheet,suppressed; also recorded: more prominent effect
same,EGFR dimerization,EGFR [4],inhibits
WYTSVGFGGLVQLR (beta-sheet of LTbeta) [P8],interaction with EGFR-ECD,EGFR-ECD,interact
same,interaction in the in vitro binding assay (EGFR-ICD context),EGFR-ICD,interacted with LTβ
panitumumab,effect in colorectal tumors harboring a KRAS mutation,[5],little or no effect
QDGLYYLYCLVGYR (beta-sheet of LTbeta) [P5],interaction with EGFR-ECD,EGFR-ECD,interact
same,interaction in the in vitro binding assay (EGFR-ICD context),EGFR-ICD,interacted with LTβ
same,sensitization to cetuximab treatment by peptide,OECM1-Ctx^R cells [1]; listed as 5th β-sheet,capable for sensitizing; also recorded: sensitized
same,"EGFR phosphorylation, in vitro kinase assay",EGFR [2],suppresses EGFR phosphorylation most significantly
same,EGFR Y1068 phosphorylation,EGFR [3],suppressed
CC(C)C[C@H](NC(=O)[C@H](Cc1ccccc1)NC(=O)c1cnccn1)B(O)O [bortezomib],sensitization to cetuximab treatment by inhibition of NF-κB activity,[6],sensitized
CCGGCGAGAGGGTGTACGTCAACATCTCGAGATGTTGACGTACACCCTCTCGTTTTT G (CCGGCGAGAGGGTGTACGTCAACATCTCGAGATGTTGACGTACACCCTCTCGTTTTTG; expressed or natural sequence) [shRNA],cetuximab resistance after knockdown of LTβ,OECM1-Ctx^R cells [7],reverses cetuximab resistance
same,cetuximab resistance after knockdown of LTβ,FaDu-Ctx^R cells,reverses cetuximab resistance
same,NF-κB reporter activity,NF-κB,reduced
